In patent publication US20190185532A1 (UNIVERSITY OF BIRMINGHAM, published 2019):

Tests used:
[1] = target: T1, MMRN2^EMI-CC (EMI and coiled-coil domains of human MMRN2, His tag) (human, UniProt Q9H8L6 23-820); experiment: far western blot, reduced; HEK293T lysates of His-tagged MMRN2 constructs probed with CLEC14A-ECD-Fc
T1 construct: domain: EMI and coiled-coil; HEK293T lysate, blotted under reducing conditions; not shown: C-terminal BirA and His tags of vector pHL-Avitag3
T1 sequence (looked up): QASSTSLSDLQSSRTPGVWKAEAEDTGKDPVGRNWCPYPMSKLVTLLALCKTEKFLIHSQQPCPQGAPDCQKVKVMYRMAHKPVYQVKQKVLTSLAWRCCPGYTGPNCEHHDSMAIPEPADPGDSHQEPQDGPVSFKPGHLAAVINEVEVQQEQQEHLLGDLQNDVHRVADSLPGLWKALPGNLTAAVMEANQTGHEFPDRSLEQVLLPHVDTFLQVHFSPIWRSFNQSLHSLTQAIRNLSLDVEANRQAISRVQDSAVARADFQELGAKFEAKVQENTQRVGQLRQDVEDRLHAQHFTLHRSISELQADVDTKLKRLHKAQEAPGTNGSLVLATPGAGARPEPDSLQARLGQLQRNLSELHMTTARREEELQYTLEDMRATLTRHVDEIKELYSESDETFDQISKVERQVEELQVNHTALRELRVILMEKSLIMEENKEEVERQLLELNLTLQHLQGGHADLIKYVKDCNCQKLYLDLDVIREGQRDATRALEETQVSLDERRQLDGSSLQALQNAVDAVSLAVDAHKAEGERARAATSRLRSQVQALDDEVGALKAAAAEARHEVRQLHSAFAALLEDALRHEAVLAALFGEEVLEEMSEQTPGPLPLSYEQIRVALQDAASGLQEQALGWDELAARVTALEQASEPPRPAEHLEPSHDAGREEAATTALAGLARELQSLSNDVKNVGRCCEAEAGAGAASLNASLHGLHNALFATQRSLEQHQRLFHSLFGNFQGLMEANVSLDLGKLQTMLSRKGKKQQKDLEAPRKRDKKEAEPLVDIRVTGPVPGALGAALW
From the text: (§1) FIG. 2. […] (A) Diagrams of MMRN2 truncation mutants, showing the elastin microfibril interface (EMI) domain, coiled-coil (CC) domain and complement related C1q domain. The minimal CLEC14A binding fragment is highlighted in black. (B,C) HEK293T were transfected with truncation mutants. Lysates were far western blotted under reduced conditions with CLEC14A extracellular domain fused to an Fc tag (CLEC14A-ECD-Fc) and western blotted by use of His tag antibodies. (B) The smallest binding fragment was identified as MMRN2⁴⁸⁷⁻⁸²⁰, MMRN2^FL fails to bind CLEC14A-ECD-Fc. (C) The smallest MMRN2 fragment binding CLEC14A is MMRN2⁵³⁰⁻⁶²⁴. (D) MMRN2⁴⁹⁵⁻⁶⁷⁴ and MMRN2⁴⁹⁵⁻⁶⁰³ bind to streptavidin under reducing conditions after biotinylation. (E) Flow cytometry histograms of HEK293T transfected with GFP tagged CTLD group 14 family members and stained with biotinylated MMRN2⁴⁹⁵⁻⁶⁷⁴ (grey line), confirming binding to CLEC14A and CD93 but not thrombomodulin. Streptavidin-PE was used as a control for background binding (grey shaded).
(§2) Whole cell protein lysates were made by incubating with lysis buffer (1% (v/v) NP40, 10 mM Tris pH7.5, 150 mM NaCl and 1 mM EDTA) and pelleting insoluble material. […] The epitope tag of each probed protein was detected with secondary antibody incubation (anti-His or anti-Fc HRP conjugate) and then tertiary anti-mouse HRP for the case of anti-His.

[2] = target: T2, MMRN2^CC-C1q (coiled-coil and C1q domains of human MMRN2, His tag) (human, UniProt Q9H8L6 133-949); experiment: as above
T2 construct: domain: coiled-coil and C1q; HEK293T lysate, blotted under reducing conditions; not shown: C-terminal BirA and His tags of vector pHL-Avitag3
T2 sequence (looked up): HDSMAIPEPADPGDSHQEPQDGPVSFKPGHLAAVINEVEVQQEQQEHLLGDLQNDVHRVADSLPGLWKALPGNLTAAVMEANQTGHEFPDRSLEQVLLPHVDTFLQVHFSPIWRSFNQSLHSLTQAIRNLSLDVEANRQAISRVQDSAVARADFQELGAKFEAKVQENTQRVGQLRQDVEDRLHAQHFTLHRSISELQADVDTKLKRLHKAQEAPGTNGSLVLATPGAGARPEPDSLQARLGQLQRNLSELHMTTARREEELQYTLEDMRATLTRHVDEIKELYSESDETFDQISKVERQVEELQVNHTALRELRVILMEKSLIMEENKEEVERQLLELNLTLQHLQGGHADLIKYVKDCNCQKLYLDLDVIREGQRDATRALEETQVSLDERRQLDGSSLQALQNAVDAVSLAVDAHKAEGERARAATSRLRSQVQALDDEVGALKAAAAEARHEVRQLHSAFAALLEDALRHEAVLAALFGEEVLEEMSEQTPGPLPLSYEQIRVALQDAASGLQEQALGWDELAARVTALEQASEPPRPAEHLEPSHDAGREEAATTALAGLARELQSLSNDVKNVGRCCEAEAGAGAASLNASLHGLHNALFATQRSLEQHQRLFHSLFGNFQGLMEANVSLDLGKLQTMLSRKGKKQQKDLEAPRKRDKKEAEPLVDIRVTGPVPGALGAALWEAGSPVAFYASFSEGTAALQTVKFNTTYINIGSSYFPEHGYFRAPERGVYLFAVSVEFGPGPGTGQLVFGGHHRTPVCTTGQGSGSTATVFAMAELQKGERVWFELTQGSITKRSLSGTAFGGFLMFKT
From the text: as §1, §2

B1: CLEC14A-ECD-Fc (human CLEC14A extracellular domain fused to an Fc tag) (Fc fusion)
chain: EHPTADRAGCSASGACYSLHHATMKRQAAEEACILRGGALSTVRAGAELRAVLALLRAGPGPGGGSKDLLFWVALERRRSHCTLENEPLRGFSWLSSDPGGLESDTLQWVEEPQRSCTARRCAVLQATGGVEPAGWKEMRCHLRANGYLCKYQFEVLCPAPRPGAASNLSYRAPFQLHSAALDFSPPGTEVSALCRGQLPISVTCIADEIGARWDKLSGDVLCPCPGRYLRAGKCAELPNCLDDLGGFACECATGFELGKDGRSCVTSGEGQPTLGGTGVPTRRPPATATSPVPQRTWPIRVDEKLGETPLVPEQDNSVTSIPEIPRWGSQSTMSTLQMSLQAESKATITPSGSVISKFNSTTSSATPQAFDSSS
notes: Expressed in HEK293T cells; also called hCLEC14A-ECD-Fc; C14A-Fc; not shown: human IgG Fc tag
B1: binds [1]; binds [2].
